Three molecules from patent US20080152587A1 (Amgen, published 2008) can be followed below.

Assay [1] deals with T1, soluble recombinant human uPAR/His6 (R&D Systems, Cat. # 807-UK-100) (human, UniProt Q03405 23-303).
T1 construct: range 1-303; Bought protein; also called soluble uPAR; hu-uPAR
Nature of the assay: limited antigen ELISA, uPAR coat 20 ng/mL, sample 1:25. (ELISA stands for enzyme-linked immunosorbent assay.)
Target sequence in this assay (Q03405 other isoform, or with tags, fused parts or gaps limits assumed, form in doubt): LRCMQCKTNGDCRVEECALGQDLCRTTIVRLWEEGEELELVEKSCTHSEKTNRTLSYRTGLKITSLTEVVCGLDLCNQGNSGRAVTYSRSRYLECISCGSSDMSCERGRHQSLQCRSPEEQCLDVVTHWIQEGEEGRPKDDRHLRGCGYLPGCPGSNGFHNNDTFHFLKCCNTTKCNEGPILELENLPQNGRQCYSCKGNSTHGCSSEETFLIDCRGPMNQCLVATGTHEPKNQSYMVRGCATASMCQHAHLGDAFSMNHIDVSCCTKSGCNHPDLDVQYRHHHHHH
Protocol: (§1) ELISA plates were coated with a lower amount ofuPAR in comparison with the High Antigen Quantitation assay described below (320, 160, 80, 40 and 20 ng/mL). Samples containing one concentration of antibody (Ab) (1:25 dilution) were incubated overnight to allow Ab binding to approach equilibrium.

Assay [2] deals with T2, recombinant cynomolgus uPAR ECD with C-terminal His tag (cynomolgus monkey, UniProt Q9GK78 23-303).
T2 construct: Used as conditioned medium of transfected HEK293 cells
Nature of the assay: KinExA, solution equilibrium, human uPAR beads capture free antibody.
Protocol: Kinetic measurements of several of the antibodies were evaluated using the KinExA® method. This method involves solution-based determination of formal affinity measurements at equilibrium. […] The remaining active groups on the beads were blocked with 10 mg/ml BSA in 1 M Tris and stored in the blocking solution as recommended by the manufacturer. KinExA experiments were performed using an automated flow immunoassay system, KinExA 3000, in which beads coupled with human uPAR served as the solid phase.
The mixture was drawn through the human uPAR-coupled beads to accumulate unbound antibody. The captured antibody was detected using solutions containing a Cy5-conjugated goat anti-human IgG heavy and light chain specific secondary antibody in sample buffer. […] Three replicates of each sample were measured for all equilibrium experiments. The equilibrium dissociation constant (KD) was obtained from nonlinear regression analysis of the data using a one-site homogeneous binding model with an unknown ligand concentration contained within the KinExA software.

The target in assay [3] is T3, human urokinase-type plasminogen activator receptor (uPAR, CD87), cell-bound (human, UniProt Q03405 23-305).
T3 construct: whole, on cells; On B300.19 or L929 transfectants (full length cDNA), or native on U937 and PC-3 cells
In words: FACS, U937 cells, mAb 5 µg/ml on ice, alexa647 goat anti-human F(ab), not stripped. (A flow cytometer gives signals particle by particle.)
Protocol: A cell suspension containing 100,000 cells was pipetted into each well of a V-bottom plates in duplicate. Two V-bottom plates were prepared, one to be kept at 37° C. during internalization with antibody complex, and the other to be incubated at 4° C. Each of the eight uPAR mAbs was incubated with U937 cells at 5 μg/ml on ice for 15 min. Incubation on ice was necessary to prevent internalization of the primary mAbs. The cells were then washed with cold FACS buffer. Cells were subsequently incubated on ice in 100 μl of 5 μg/ml alexa647-labelled goat anti-humanF(ab) (Invitrogen catalogue number A21249) in cold FACS buffer for 15 min. This allowed the goat FAB bind to the bound uPAR mAbs without permitting any internalization. After a 15 minute incubation on ice, one plate was kept on ice, while the other plate was incubated at 37° C. for 1 hour.
Following the 1 hr incubation with the mAb-FAB complex, the cells were washed twice with cold 5% FACS buffer, and 200 μl of Tris(2-carboxyethyl)phosphine HCl (TCEP) was added to each well as a stripping agent. The plates were both incubated with TCEP on ice for 1 hour, followed by washing and resuspending with FACS buffer. 4 μl of 7-Amino-Actinomycin D (7AAD) was added to each well, followed by 10 min incubation on ice before FACS analysis was conducted.

The target in assay [4] is T1, soluble recombinant human uPAR/His6 …. Nature of the assay: low resolution Biacore. (Surface plasmon resonance follows binding to a sensor surface in real time, without labels.)
Protocol: (§2) A high-density goat anti-human antibody surface over a CM5 Biacore™ chip was prepared using routine amine coupling. […] Each mAb was captured on a separate flow cell using a 30-second contact time at 10 μL/min followed by a 5-minute wash at a 100 μL/min flow rate for stabilization of the mAb baseline. […] All antigen samples were prepared in the running buffer.
For assay [5], the target named is T3, human urokinase-type plasminogen …. In words: FACS competition with FITC-tc-uPA, line material.
Target sequence in this assay (Q03405 23-305): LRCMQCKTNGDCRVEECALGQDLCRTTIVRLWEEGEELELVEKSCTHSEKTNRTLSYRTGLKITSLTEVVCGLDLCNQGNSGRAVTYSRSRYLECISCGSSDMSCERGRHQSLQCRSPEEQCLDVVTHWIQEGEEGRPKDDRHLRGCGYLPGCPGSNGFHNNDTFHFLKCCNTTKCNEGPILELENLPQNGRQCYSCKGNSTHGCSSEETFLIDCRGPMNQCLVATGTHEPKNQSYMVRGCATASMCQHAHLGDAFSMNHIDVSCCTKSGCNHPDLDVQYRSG
Description: Briefly, murine fibroblast L929 cells (ATCC) were transfected to express human uPAR.
In assay [6] the target is T1, soluble recombinant human uPAR/His6 …. Nature of the assay: high resolution Biacore, mAb amine coupled, uPAR injected.
Protocol: All mAbs were diluted into 10 mM sodium acetate, pH 4.0 for immobilization. […] All experiments were run at 23° C. with a flow rate of 100 μL/min. Serially diluted (2-fold) uPAR samples were randomly injected in triplicate for 90 seconds with several buffer injections interspersed for double referencing. A Biacore™ 2000 biosensor instrument was used for all high resolution experiments. Data were fit globally to a 1:1 interaction model with a term for mass transport included.
Assay [7] shares this target. In words: low resolution Biacore, mAb captured by goat anti-human, hu-uPAR 312 nM.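 Also: surface plasmon resonance on a CM5 chip with goat anti-human antibody surface made by amine coupling, each mAb from supernatant captured per flow cell, kinetics fitted including mass transport.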
Protocol: as §2
A mass transport coefficient was used in fitting the data.
Assay [8] concerns the target T4, murine uPAR (form not stated) (mouse, UniProt P35456 24-297, limits assumed).
T4 construct: also called mouse uPAR
T4 sequence (looked up): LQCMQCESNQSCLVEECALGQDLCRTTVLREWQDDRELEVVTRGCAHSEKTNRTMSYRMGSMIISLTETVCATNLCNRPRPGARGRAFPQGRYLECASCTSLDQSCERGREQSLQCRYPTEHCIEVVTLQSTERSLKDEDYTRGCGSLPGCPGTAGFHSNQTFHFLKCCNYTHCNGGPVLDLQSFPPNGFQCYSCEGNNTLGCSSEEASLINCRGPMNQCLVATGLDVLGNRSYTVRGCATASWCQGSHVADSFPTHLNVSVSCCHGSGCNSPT
Nature of the assay: summary column Murine X-reactivity.

For assay [9], the target named is T5, mouse uPAR on the surface of NCTC L929 cells (mouse, UniProt P35456 24-298).
T5 construct: whole, on cells; also called cell surface mouse uPAR
T5 sequence (looked up): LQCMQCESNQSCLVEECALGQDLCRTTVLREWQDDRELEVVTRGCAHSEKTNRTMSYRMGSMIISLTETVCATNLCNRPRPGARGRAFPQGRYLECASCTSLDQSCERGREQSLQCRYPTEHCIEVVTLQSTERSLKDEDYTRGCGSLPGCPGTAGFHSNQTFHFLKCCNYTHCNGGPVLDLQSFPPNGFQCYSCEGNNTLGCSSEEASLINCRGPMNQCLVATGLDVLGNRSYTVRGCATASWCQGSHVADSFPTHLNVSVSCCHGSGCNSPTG
Nature of the assay: FACS, NCTC L929 mouse cells, mAb 6.25 µg/ml.
Protocol: To make the mouse cross-reactivity results conclusive, direct binding of the mAbs to cell-bound mouse uPAR was measured using FACS analysis. The mouse cell line derived from the connective tissue, NCTC L929, was employed for FACS analysis. The harvested cells were resuspended at 50,000 cells/well using FACS buffer into a V-bottom plate which was put on ice. […] After washing, Cy5-labeled goat anti-human IgG Fc at 5 μg/ml and 7AAD at 5 μg/ml was added. The mixtures were incubated for 15 min on ice, washed and resuspended in cold FACS buffer for FACS analysis.

Assay [10] has as its target T1, soluble recombinant human uPAR/His6 …. In words: limited antigen ELISA, uPAR coat 80 ng/mL, sample 1:25.
Target sequence in this assay (Q03405 other isoform, or with tags, fused parts or gaps limits assumed, form in doubt): as the sequence (Q03405 other isoform, or with tags, fused parts or gaps limits assumed, form in doubt) above
Protocol: as §1
For assay [11], the target named is T6, cynomolgus monkey uPAR, cell-bound (cynomolgus monkey, UniProt Q9GK78 23-305).
T6 construct: whole, on cells; also called cyno-uPAR
In words: FACS, GeoMean; cynomolgus uPAR expressed on 293T cells; antibody concentration not given.

T6 sequence (Q9GK78 23-305): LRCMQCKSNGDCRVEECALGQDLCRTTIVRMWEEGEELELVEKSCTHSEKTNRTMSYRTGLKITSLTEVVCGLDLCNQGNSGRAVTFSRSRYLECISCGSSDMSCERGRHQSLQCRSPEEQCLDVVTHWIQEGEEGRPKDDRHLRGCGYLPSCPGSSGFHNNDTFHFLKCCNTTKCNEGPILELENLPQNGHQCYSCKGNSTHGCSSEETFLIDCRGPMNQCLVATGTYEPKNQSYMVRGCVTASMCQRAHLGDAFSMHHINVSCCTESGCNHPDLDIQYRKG

B1: fully human monoclonal antibody 2.6.1 (ATCC Accession Number PTA-7475) (antibody, V domains shown)
VH: EVQLVESGGGLIQPGGSLRLSCAASGFTVITNYMNWVRQAPGKGLEWVSIIYTGGSTSYADSVKGRFTVSRDNSKNTLYLHMNSLRVEDTAVYYCAREIAVAGYYGMDVWGQGTTVTVS
VL: DIQMTQSPSSLSASVGDRVTITCRASQGIRNDLGWYQQKPGKAPKRLIYAASSLQSGVPSRFSGSGSGTEFTLTISSLQPEDFATYYCLQHNSYPLTFGGGTRVEIK
notes: also called mAb 2.6.1
For orientation: Kd means a measure of binding affinity in units of concentration. What is called koff is a measure of how fast the partners let go of each other. For orientation: kon means the second-order rate constant of association. As to B1, the “LA at 20 ng/ml” value in assay [1] came to 0.63. Besides, the Kd in [2] is 1.09 nM; in assay [4] it was 0.57 nM; in assay [6], 0.249 nM; in assay [7], 0.57 nM. Further, the “geo mean cold - TCEP” value in [3] turned out to be 44.3. For the same molecule, the “Human uPAR/uPA binding inhibition (%, line material)” value in assay [5] came out at 80%. Further, the off-rate constant (koff) in assay [7] was 4.6e-05 s⁻¹. Moreover, the kon in assay [7] was 81000 M⁻¹ s⁻¹. The binding result in [8] was “no binding”. For the same molecule, in [9], the “X Geo Mean” value was 12.9. Moreover, the “LA at 80 ng/ml” value in assay [10] came out at 3.58.

B2: fully human monoclonal antibody 4.18.1 (ATCC Accession Number PTA-7476) (antibody, V domains shown)
VH: EVQLVESGGGLIQPGGSLRLSCAASGFTVRNNYMNWVRQAPGKGLEWVSVIYTGGSTYYADSVKGRFTISRDNSRNTLYLQMNSLRAEDTAVYYCAREGAVAGFDYWGQGTLVTVSL
VL: EIVMTQFPATLSMSPGERATLSCRASQSVSSSLAWYQQTPGQAPRLLIYGASTRSTGFPARFSGIGSGTEFTLTISSLQSEDFAVYYCQQYGNWPLTFGQGTRLEIK
Turning to B2, the “LA at 20 ng/ml” value in assay [1] came to 0.27. Also, the “geo mean cold - TCEP” value in assay [3] came to 41.2. In addition, the results for the dissociation constant (Kd) in assay [4], in assay [6] and in [7] were 1.5 nM, 0.446 nM and 1.5 nM, respectively. For the same molecule, the “Human uPAR/uPA binding inhibition (%, line material)” value in [5] was determined as 75%. Moreover, the binding result is recorded as “binds” in [11] and “no binding” in assay [8]. Moreover, in assay [7], the koff is 0.00016 s⁻¹. Moreover, the kon in [7] worked out at 110000 M⁻¹ s⁻¹. Also, in assay [9], the “X Geo Mean” value is 8.18. For the same molecule, the “LA at 80 ng/ml” value in assay [10] came to 2.06.

B3: fully human monoclonal antibody 2.19.2 (ATCC Accession Number PTA-7474) (antibody, V domains shown)
VH: QVQLVESGGGVVQPGRSLRLSCAASGFTFSSYGMHWVRQAPGKGLEWVAVIWYDGSNKYYADSVKGRFTISRDNSKNTLYLQMNSLRAEDTAVYYCARDQHIVVVTAILDYWGQGTLVTVSS
VL: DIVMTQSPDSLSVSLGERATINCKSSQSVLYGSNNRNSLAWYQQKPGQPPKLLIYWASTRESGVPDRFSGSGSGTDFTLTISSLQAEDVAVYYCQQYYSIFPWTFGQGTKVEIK
As to B3, the “LA at 20 ng/ml” value in assay [1] is 0.65. Moreover, the dissociation constant (Kd) in assay [2] worked out at 0.346 nM; in assay [4], 0.31 nM; in [6], 0.175 nM; in assay [7], 0.31 nM. In addition, in assay [3], the “geo mean cold - TCEP” value was 42.7. For the same molecule, in [5], the “Human uPAR/uPA binding inhibition (%, line material)” value turned out to be 85%. Moreover, the koff in assay [7] stood at 4.3e-05 s⁻¹. Further, in assay [7], the kon worked out at 140000 M⁻¹ s⁻¹. The binding result in [8] was “no binding”. In addition, in assay [9], the “X Geo Mean” value amounted to 9.55. In addition, the “LA at 80 ng/ml” value in [10] was determined as 2.65.
